Biological target: T1, MBP-ComKBco (Bacillus coagulans DSM 1) (UniProt K4MVI2)
T1 sequence: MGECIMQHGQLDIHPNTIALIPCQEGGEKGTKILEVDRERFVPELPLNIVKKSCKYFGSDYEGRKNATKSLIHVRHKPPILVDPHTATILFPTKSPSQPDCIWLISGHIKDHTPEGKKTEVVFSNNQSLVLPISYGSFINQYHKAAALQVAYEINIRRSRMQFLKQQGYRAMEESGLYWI
Assay: EMSA
Settings: EMSA: binding buffer (composition not given) with poly(dI-dC), premixed on ice, 20 min at 30 C; 6% polyacrylamide gel in 1x TBE, 90 V, 60 min; pH and salt not …

ACGGGTACCATTTGCCGGAAATCGACGTGCCGGCAGCAGGACATAAAAGTGACCCGGTCGCAATAAAGGGGCAATAAGTTTTCGGCATGTTCATCCTTGCCATTACATATGCTTAATATCGCCCGTTGCTTGCCGGTAGCGAACCAAGAAAATACCATATGCTGAAAGATCAGAGGGATCAAACATGCATGGATTATGGACAGCTTATTTTGCGGGGCCCCGT (double strand) [comCBco promoter]
binding: binds more weakly

Source: article PMC3536758
